Kd data for 105 sequences are collected here from the Immune Epitope Database (IEDB).

Holding throughout (assay): IEDB peptide-MHC binding, purified MHC/competitive/fluorescence; filed as Kd, often an IC50 or EC50 that approximates it; ≥ and ≤ were set here for values at or beyond the usual limits of such assays
Settings in all cases: source organism: Plasmodium falciparum 3D7

Test [1] concerns the target HLA-B*44:02.
Test [2] deals with HLA-A*03:01.
Test [3] deals with HLA-A*01:01.
The target of test [4] is HLA-A*24:02.
The target of test [5] is HLA-A*02:01.
The target of test [6] is HLA-B*07:02.

In the case of AEISRNDLI, in test [1], the Kd (usually the concentration at which binding is half-saturated) is 4.53 µM.
As for ALNLFFQNK, the Kd in test [2] was 1.14 µM.
On to ASFSASTGY, for which the Kd was no less than 1000 µM in test [3], 2.37 µM in test [2] and no less than 31.7 µM in test [1].
The sequence CRDKTSALY showed a Kd in test [3] of no less than 1000 µM.
Turning to DDTFEVYSEY, the Kd in test [3] and in test [1] was no less than 1000 µM throughout.
Regarding DENLKAIQI, the Kd in test [1] was no less than 91.3 µM.
In the case of DSDDLKESY, the Kd in test [3] came out at 2.6 µM.
In the case of DTFEVYSEY, the Kd in test [3] and in test [2] was no less than 1000 µM each time.
EENLFEWSKT returned a Kd in test [1] of no less than 1000 µM.
As for EWLKTCKYYC, in test [4], the Kd is no less than 578 µM.
FCFSFLKSSK registered a Kd in test [2] of 9.21 µM.
For FDNSGISLL, the Kd was no less than 229 µM in test [5] and no less than 1000 µM in test [1].
Take FIDPQTEMFK: the results for the Kd in test [3] and in test [2] were no less than 46.6 µM and 8.1 µM, respectively.
FLENFNFPL: the Kd is no less than 1000 µM in test [3] and 3.68 µM in test [5].
In turn, FLLNLLNEHV yielded a Kd in test [5] of 1.68 µM.
The sequence FPKLLNKPSL had a Kd in test [6] of no less than 73.1 µM.
The same measure, in the same setting: the figure for FPPNTFDAL is 2.72 µM.
As for FTNVNQFFK, the Kd in test [3] was no less than 1000 µM; in test [2] it was 0.921 µM.
GIANDLSTL showed a Kd in test [5] of 5.73 µM.
In test [2], GLSPHDTMQK registered a Kd of 1.1 µM.
Consider HPFLKSGFTF, for which the Kd in test [4] is 10.5 µM; in test [6], 0.226 µM; in test [1], no less than 1000 µM.
As for HPKYRNFKF, in test [6], the Kd worked out at 0.336 µM.
Same read-out and setting: with HPMPINIKL the figure was 0.168 µM.
Sequence HYGINPVQL yielded a Kd in test [4] of 6.79 µM.
Still for that read-out and setting: with HYNTYKNRVF the figure was 3 µM.
Sequence IENNLYERL returned a Kd in test [1] of no less than 60.1 µM.
As to ILISRLTLK, the Kd in test [2] turned out to be 0.22 µM.
As for ILYKNIDCV, in test [5], the Kd worked out at 1.4 µM.
Regarding IPPQVFDYPI, the Kd in test [6] is no less than 245 µM.
Take ITNKNKVTIY: the values for the Kd in test [3] and in test [2] were no less than 1000 µM and 8.72 µM, respectively.
Sequence IWYKYTESDF gave a Kd in test [4] of 1.12 µM.
Same read-out and setting: the figure for IYGKGGFQF is 0.163 µM.
Consider KEDDTFEVY, for which the Kd in test [3] was no less than 1000 µM.
As to KEEKEINDEY, in test [1], the Kd is no less than 1000 µM.
Turning to KLPPLLNEI, the results for the Kd in test [5] and in test [4] were 2.66 µM and 0.0887 µM, respectively.
Regarding KLYSINSKSI, the Kd in test [5] was no less than 57.7 µM; in test [6], no less than 225 µM.
Take KMKSDQYPI: the Kd in test [5] came out at 3.07 µM; in test [4], 6.9 µM.
KNYDNYNMK had a Kd in test [2] of 2.51 µM.
Sequence KPNFWRFQDY returned a Kd in test [6] of no less than 1000 µM.
Consider KTCKYYCFK, for which, in test [2], the Kd is no less than 116 µM.
With KYDPRISGW, the Kd in test [4] was 5.01 µM.
LFGDENFSF came in with a Kd in test [4] of 5.87 µM.
For LISRLTLKY, the Kd in test [3] was found to be 11.5 µM.
As for LISTDIIFL, the Kd in test [5] was 0.614 µM.
As to LLFQKAANL, the Kd in test [5] was found to be 1.88 µM.
Turning to LLNSDRRDL, the Kd in test [6] is 0.2 µM.
Turning to LPIEPKKLA, the Kd in test [6] was no less than 561 µM.
As for LSSNIENIY, the Kd in test [3] was no less than 29.6 µM.
Consider LTHKYNEFV, for which the dissociation constant Kd is no less than 174 µM in test [3] and 2.41 µM in test [5].
In turn, LTMKMINNK returned a Kd in test [2] of 0.472 µM.
With MDFPKLLNK, in test [2], the Kd came to 2.08 µM.
In test [1], MENEDVEFI gave a Kd of no less than 36.9 µM.
MYHNKEFDF had a Kd in test [4] of 4.51 µM.
As to NEEIIDLLNL, in test [1], the Kd was no less than 433 µM.
In test [1], NENNTTYQY came in with a Kd of 18.4 µM.
As to NLFEWSKTV, the Kd in test [5] came to 1.62 µM.
As for NLFFQNKSI, the Kd in test [5] is no less than 1000 µM.
Take NLNLCGKYTK: in test [2], the Kd was no less than 1000 µM.
For the sequence NMNYKQNNF, in test [4], the Kd came to 14.7 µM.
In the case of NMYQQNIPL, in test [5], the Kd is no less than 331 µM.
In test [3], NNNFRNNMY gave a Kd of no less than 1000 µM.
Sequence NPVQLKSKF showed a Kd in test [6] of no less than 59.6 µM.
For NSDKLDLIY, the Kd in test [3] was 0.875 µM.
In test [3], NSPNVNKRY yielded a Kd of no less than 1000 µM.
Regarding NTFDALYYV, the Kd in test [3] is no less than 1000 µM; in test [5], 8.76 µM.
Sequence NTVKCPNDY gave a Kd in test [3] of no less than 282 µM.
In test [4], NYKQNNFPF yielded a Kd of 9.49 µM.
On the same count and under the same terms, the figure for NYNNDQYNI is 6.54 µM; for PFLKSGFTF it is 8.32 µM.
As to QVFDYPIEK, the Kd in test [2] was 1.57 µM.
In turn, RISGWKGDNK gave a Kd in test [2] of 0.548 µM.
With RLNLFCFSF, the Kd in test [4] is 11 µM; in test [1], no less than 1000 µM.
Consider RLNLFCFSFL, for which the Kd is no less than 161 µM in test [5], 6.12 µM in test [2] and no less than 421 µM in test [1].
RLNNRSIYK came in with a Kd in test [2] of 0.224 µM.
In the case of RNIISKHTSV, the Kd in test [6] is no less than 505 µM.
For the sequence RSKKTFLVK, the Kd in test [2] came out at 0.409 µM.
In test [2], RSSGSTFSIK returned a Kd of 0.326 µM.
SESTSTYNT had a Kd in test [1] of no less than 103 µM.
With SHPKYRNFKF, the Kd in test [4] came to 16.6 µM.
SIASKNLMWV: the Kd is no less than 284 µM in test [5], no less than 1000 µM in test [2] and no less than 1000 µM in test [6].
Turning to SILISRLTL, the Kd in test [1] was no less than 1000 µM.
SISDYTKSL registered a Kd in test [5] of no less than 352 µM.
In test [1], SKHPFLKSGF returned a Kd of no less than 1000 µM.
In test [4], SLTHKYNEF came in with a Kd of 12.6 µM.
SLTHKYNEFV displayed a Kd in test [5] of no less than 182 µM.
The same measure, in the same setting: the figure for SMTNIPMNV is 0.244 µM.
Consider SPHDTMQKDD, for which the Kd in test [6] was no less than 1000 µM.
Regarding SSANDEQSY, the Kd in test [3] was no less than 65 µM.
Turning to STDIIFLTMK, the Kd was no less than 1000 µM in test [3] and 8.78 µM in test [2].
For TEMFKLRLNL, the results for the Kd in test [4], in test [6] and in test [1] were no less than 58.2 µM, no less than 1000 µM and no less than 54.8 µM, respectively.
In turn, TEYFKNKNM returned a Kd in test [1] of no less than 31.4 µM.
Consider TIYGKGGFQF, for which the dissociation constant Kd in test [6] was no less than 109 µM.
Take TMANQNMNY: the Kd in test [3] was found to be 2.02 µM; in test [2], 0.943 µM.
TMANQNMNYK: the Kd in test [2] amounted to 0.209 µM.
For the sequence TSKQGSSNKY, the Kd in test [3] was no less than 1000 µM.
For the sequence TTFFESVSY, the Kd in test [3] is no less than 338 µM; in test [2], no less than 658 µM.
TYSIYTNFKN returned a Kd in test [4] of no less than 26.6 µM.
VIHYGINPV had a Kd in test [5] of 1.7 µM.
On the same count and under the same terms, with WLNNDIYNV the figure was 0.16 µM.
With YESQLGGKI, in test [1], the Kd is no less than 66.3 µM.
Sequence YGKGGFQFVF displayed a Kd in test [4] of 0.231 µM.
YITNKNKVTI registered a Kd in test [5] of no less than 1000 µM.
YPIEKLGHV gave a Kd in test [6] of 0.257 µM.
On to YTIGLPPYI, for which the Kd in test [5] stood at 2.46 µM; in test [4], 6.57 µM.
In test [4], YYPIIRKQF had a Kd of 0.101 µM.
